# Laboratory results as given in US20200399394A1 (published 2020).
# Substitutions are numbered along the chain they refer to.
# T1: human CD39 (ectonucleoside triphosphate diphosphohydrolase 1) (UniProt P49961 1-510)
# T1 chain: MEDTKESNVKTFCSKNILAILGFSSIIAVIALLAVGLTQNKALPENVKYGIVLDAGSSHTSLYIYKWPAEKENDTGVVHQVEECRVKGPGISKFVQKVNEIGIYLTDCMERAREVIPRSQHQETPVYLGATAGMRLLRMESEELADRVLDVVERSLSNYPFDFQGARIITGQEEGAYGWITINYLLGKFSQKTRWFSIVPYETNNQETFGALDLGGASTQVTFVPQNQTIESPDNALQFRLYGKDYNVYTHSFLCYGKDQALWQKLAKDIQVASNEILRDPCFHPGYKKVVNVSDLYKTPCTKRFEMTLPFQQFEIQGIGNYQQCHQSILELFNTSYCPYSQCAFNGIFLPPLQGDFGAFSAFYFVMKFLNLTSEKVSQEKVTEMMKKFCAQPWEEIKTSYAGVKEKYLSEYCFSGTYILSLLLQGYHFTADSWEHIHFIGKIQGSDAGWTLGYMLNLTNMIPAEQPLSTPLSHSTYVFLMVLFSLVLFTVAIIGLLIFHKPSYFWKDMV
# B1: SRF367-C (antibody, V domains shown)
# VH: QVQLVQSGAEVKKPGSSVKVSCKASGGTFSSEGISWVRQAPGQGLEWMGSILPIFGTANYAQKFQGRVTITADESTSTAYMELSSLRSEDTAVYYCAREAGYYRYRYFDLWGKGTLVTVSS
# VL: EIVMTQSPATLSVSPGERATLSCRASQSVSSNLAWYQQKPGQAPRLLIYGASTRATGIPARFSGSGSGTEFTLTISSLQSEDFAVYYCQQHALWPLTFGGGTKVEIKR
# B2: SRF365-C (antibody, V domains shown)
# VH: B1 VH with S31D, E32K, G33A, K113R
# VL: B1 VL
# B3: SRF360-C (antibody, V domains shown)
# VH: EVQLVESGGGLVKPGGSLRLSCAASGFTFSSYRMNWVRQAPGKGLEWVSSISSSSSSIWYADSVKGRFTISRDNAKNSLYLQMNSLRAEDTAVYYCAKGPRYDSSGYRWRYGMDVWGQGTTVTVSS
# VL: DIQMTQSPSSLSASVGDRVTITCRASQSISSYLNWYQQKPGKAPKLLIYAASSLQSGVPSRFSGSGSGTDFTLTISSLQPEDFATYYCQQLYVDPPWTFGGGTKVEIKR
# B4: SRF370-C (antibody, V domains shown)
# VH: QVQLVQSGAEVKKPGSSVKVSCKASGGTFSTYAIGWVRQAPGQGLEWMGGIIPAFGTANYAQKFQGRVTITADESTSTAYMELSSLRSEDTAVYYCARDPVRRSPFDIWGQGTMVTVSS
# VL: EIVLTQSPATLSLSPGERATLSCRASQSVSSYLAWYQQKPGQAPRLLIYDSSNRATGIPARFSGSGSGTDFTLTISSLEPEDFAVYYCQQSFLWPRTFGGGTKVEIKR
# B5: SRF365-C (antibody, V domains shown)
# VH: B1 VH with S31D, E32K, G33A, K113R
# VL: B1 VL
# B6: SRF367-C (antibody, V domains shown)
# VH: B1 VH
# VL: B1 VL
# B7: SRF360-C (antibody, V domains shown)
# VH: B3 VH
# VL: B3 VL
# Molecular target: T1, human CD39 (ectonucleoside triphosphate …)
# Assay: ForteBio (BLI); IgG, monovalent
row,Kd [nM],Binder
1,1.57,B1
2,0.556,B2
3,0.772,B3
4,2.59,B4

# Molecular target: T1, human CD39 (ectonucleoside triphosphate …)
# Assay: MSD equilibrium; Fab
row,Kd [nM],Binder
1,0.051,B5
2,0.24,B6
3,0.044,B7
